According to the supplement of paper PMC10724198:
± gives the standard deviation of the averaged measurements.

system: Saccharomyces cerevisiae; test: protein stability index of tFT-peptide fusion (C-terminal peptide) (PSI (0-1 scale)); higher = more stable (slower turnover); details: genetic background: wild type; temperature: 30 C
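Also: PSI is a weighted mean of sequencing reads over stability bins, variants kept only with over 10 reads, mCherry proximal and sfGFP distal, peptide attached via GGGS linker.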

| Sequence | protein stability index |
| --- | --- |
| VAAASPLFSRID | 0.712 ± 0.014 |
| QPPLSDYHQARR | 0.683 ± 0.023 |
| KKRKVKKKKPNG | 0.581 ± 0.033 |
| THSTLRRFSGYS | 0.7005 ± 0.001 |
| LPPPAPPSSFPP | 0.661 ± 0.056 |
| GGGRCSGDGDRG | 0.708 ± 0.063 |
| KKKKEEKKKSKK | 0.644 ± 0.041 |
| VGDGLGGGGQGG | 0.664 ± 0.056 |
| KVGLGVNSLFTG | 0.745 ± 0.18 |
| LRENKGPAPPLL | 0.651 ± 0.0087 |
| RRREGTVPWYIS | 0.605 ± 0.057 |
| DGVAILPLVRIS | 0.63 ± 0.031 |
| RAFDGYNSVDML | 0.663 ± 0.023 |
| EVWGSVETSCAS | 0.739 ± 0.17 |
| GFRLCVFGSSLF | 0.6956 ± 0.0025 |
| SSLFVISIPFRS | 0.639 ± 0.015 |
| RRAKMSWCCKKY | 0.69 ± 0.0098 |
| PPPLPPAPPPFP | 0.698 ± 0.017 |
| EALTLLGAFYLP | 0.694 ± 0.025 |
| VKSGSTALRVNS | 0.607 ± 0.051 |
| GAPPRPKTGRTF | 0.7118 ± 0.00075 |
| WWEVSFRVGAVR | 0.648 ± 0.025 |
| AFLMPFPSRLCV | 0.5806 ± 0.0052 |
| RPVPVPTALIPS | 0.61 ± 0.013 |
| KVCESRQVEYFR | 0.634 ± 0.088 |
| VWLGEYGVGCSV | 0.655 ± 0.048 |

| Sequence | protein stability index |
| --- | --- |
| PPPRRPPPRLLS | 0.705 ± 0.11 |
| GGVGVGVGCGGR | 0.6828 ± 0.0017 |
| IKKEKKQKKKKG | 0.665 ± 0.098 |
| PPAPSPLPPPPF | 0.756 ± 0.03 |
| PFWTPASPPSFY | 0.748 ± 0.014 |
| WGWGGVRGGMGG | 0.796 ± 0.08 |
| LHPRCVLPHFRV | 0.627 ± 0.032 |
| RFPRSSPPHRSL | 0.717 ± 0.023 |
| VSNKWATANKYG | 0.644 ± 0.051 |
| VKLEEKNTINKV | 0.668 ± 0.1 |
| RFRSMTGVIVSE | 0.6772 ± 0.002 |
| ATKAKKGTMSHE | 0.652 ± 0.051 |
| VDLLGWVSESRC | 0.743 ± 0.089 |
| SISQSSSLGLED | 0.677 ± 0.046 |
| PCSPLSLPPPFP | 0.722 ± 0.0073 |
| WGWGGGRDGCGV | 0.643 ± 0.1 |
| TEVWSGFARWGG | 0.675 ± 0.046 |
| PPPSPPLPPHSP | 0.7619 ± 0.0011 |
| ASSLSPSTFFCL | 0.642 ± 0.015 |
| EPPQPPSLPPLF | 0.739 ± 0.0085 |
| ILRGRDLPHGLG | 0.688 ± 0.03 |
| VCWFMWSSVYGE | 0.527 ± 0.051 |
| PSPPASSPPLPL | 0.665 ± 0.02 |
| VTGDRGGVRGGE | 0.685 ± 0.012 |
| EGVWIVMFCGLL | 0.504 ± 0.11 |
| CLRFPALPRRHP | 0.772 ± 0.017 |

| Sequence | protein stability index |
| --- | --- |
| GPALLLHRLTAP | 0.684 ± 0.066 |
| EYKKKKTKANDT | 0.6944 ± 0.0015 |
| PQPPFTHGLIPS | 0.706 ± 0.023 |
| VYSDSCLLRKTT | 0.695 ± 0.02 |
| IVRTMLKLFVDV | 0.5827 ± 0.0037 |
| LLLFPSSFIFFY | 0.629 ± 0.055 |
| PVPPGYFLRSPP | 0.701 ± 0.032 |
| MTLSCGVGLTVG | 0.6521 ± 0.0009 |
| WKGEREKQGKEG | 0.589 ± 0.084 |
| GARVRIRVNDKK | 0.677 ± 0.021 |
| RVRGDRLGGRGT | 0.706 ± 0.043 |
| ANELQEIYLGET | 0.6881 ± 0.006 |
| PLPLSPPLLPAP | 0.6 ± 0.0082 |
| PPPPSLPPPPRS | 0.693 ± 0.035 |
| GFSLGAPRPFVQ | 0.718 ± 0.039 |
| SPPSSFPVFTLL | 0.728 ± 0.05 |
| PPPHATPAPSPL | 0.706 ± 0.045 |
| IMNNSKIYRSVG | 0.6593 ± 0.0021 |
| PNLRPPSPPSLL | 0.714 ± 0.049 |
| IFKSGLPLRVGL | 0.657 ± 0.028 |
| RLTKTRNDLRSL | 0.654 ± 0.016 |
| VGEGLGWGGQGG | 0.712 ± 0.062 |
| WSFGRWGGAGAR | 0.629 ± 0.044 |
| NKKKGYRKKQNH | 0.567 ± 0.032 |
| DLMLSVDLNIDG | 0.699 ± 0.0084 |
| PLSFSPSLRYPP | 0.659 ± 0.023 |

| Sequence | protein stability index |
| --- | --- |
| LRDTAPEPGPAP | 0.6895 ± 0.0014 |
| RFGPPPPPPSTL | 0.71 ± 0.035 |
| SGGRVSGLVGEE | 0.673 ± 0.031 |
| PVSCPPPPLHMS | 0.661 ± 0.013 |
| PLAPLPMSPHLA | 0.572 ± 0.016 |
| TYQRTHKTATQF | 0.681 ± 0.073 |
| QPTCSLRAGPRD | 0.713 ± 0.036 |
| GLLARESLSFRH | 0.675 ± 0.026 |
| DCVFLPCPRFFL | 0.707 ± 0.03 |
| FLLSLLAFRFFL | 0.478 ± 0.04 |
| PVASSPLLPSPS | 0.649 ± 0.061 |
| ASTCLKFTPTIF | 0.883 ± 0.1 |
| TFRKMEKKKDGG | 0.652 ± 0.018 |
| TSWTTVYSSLLT | 0.672 ± 0.088 |
| GPSLLAAQAHTN | 0.704 ± 0.038 |
| LREETKREDDKQ | 0.814 ± 0.061 |
| RGGRGAVRWLRG | 0.66791 ± 7.1e-07 |
| LCPTGAPLYFSL | 0.64 ± 0.093 |
| HRQERLETKTYF | 0.623 ± 0.13 |
| VGAGGAWSGCGP | 0.675 ± 0.046 |
| FVSRLWKIPTES | 0.583 ± 0.034 |
| PPLPLTAPHLCH | 0.705 ± 0.03 |
| LEGEESISQMNE | 0.664 ± 0.043 |
| VRRRKLAKCEVN | 0.474 ± 0.058 |
| QRPSRAQGKSYE | 0.766 ± 0.014 |
| TFNRIFGNALPG | 0.688 ± 0.044 |

| Sequence | protein stability index |
| --- | --- |
| PPRFCPPLAPSV | 0.681 ± 0.0095 |
| LFHPPVCPVFLD | 0.758 ± 0.037 |
| RPFAPLPPPPSM | 0.689 ± 0.025 |
| RLLCSETPPTLA | 0.665 ± 0.014 |
| WLNMKFRTLCGS | 0.634 ± 0.038 |
| SPVSLPIPYTFL | 0.6891 ± 0.0054 |
| AGASCGGRPDTA | 0.607 ± 0.02 |
| DRHWLELVGLWS | 0.75 ± 0.049 |
| GLYAVHEAGWRP | 0.701 ± 0.089 |
| VVALHYNYFSRL | 0.613 ± 0.09 |
| DCCAHLRARRLT | 0.539 ± 0.035 |
| SAHPFKSCPIGR | 0.682 ± 0.0094 |
| SMFGSVGLMPCG | 0.656 ± 0.02 |
| FPPVPLVTDTFT | 0.675 ± 0.034 |
| ERGACPGLRQLN | 0.649 ± 0.015 |
| LSTPWADPTSSP | 0.716 ± 0.096 |
| PSPPPPGLFPLP | 0.632 ± 0.044 |
| LSPQKRDSAVTR | 0.638 ± 0.095 |
| LGSLSPRLPSLR | 0.672 ± 0.091 |
| KKKKIKKKEKNK | 0.716 ± 0.079 |
| GGAPMRPGGGTC | 0.678 ± 0.065 |
| PGRAARLLPRPL | 0.712 ± 0.048 |
| GGGFRVLCVGLG | 0.627 ± 0.037 |
| ARPFLWDFCLGR | 0.681 ± 0.028 |
| LLFTFLPFRTVR | 0.709 ± 0.044 |
| SSHVPPDLPSLH | 0.692 ± 0.031 |

| Sequence | protein stability index |
| --- | --- |
| RFGSGYLRRYTH | 0.776 ± 0.011 |
| VDCEECSFQFQM | 0.586 ± 0.15 |
| YGFLFRFLSPNP | 0.6788 ± 0.0038 |
| YPPPPLPPPRPP | 0.555 ± 0.015 |
| LVCPFFLSSRIF | 0.653 ± 0.025 |
| PPTPPPPSPLAP | 0.73 ± 0.034 |
| RYLVLPDLCPIS | 0.736 ± 0.1 |
| SEVPCENSRRVV | 0.667 ± 0.08 |
| SPRSPPSTSSPQ | 0.6802 ± 0.001 |
| GKCLEGCCLVWG | 0.686 ± 0.008 |
| KRKKNKKRKQNE | 0.656 ± 0.026 |
| PPSWTPPSPLPL | 0.727 ± 0.06 |
| QRTAACGSQRNR | 0.682 ± 0.025 |
| SPPTSPAPLPPP | 0.6502 ± 0.0032 |
| LRASVFPVLDMC | 0.718 ± 0.075 |
| CGSTRGDCVGIW | 0.705 ± 0.05 |
| SWIQLDAWETRS | 0.696 ± 0.041 |
| LPSRSLPSPGPP | 0.714 ± 0.027 |
| NTRKIEAVGSER | 0.658 ± 0.024 |
| SLDFRSARFSLG | 0.65 ± 0.014 |
| RISPRVSARLCI | 0.616 ± 0.007 |
| LLPALPLPLSLT | 0.64 ± 0.013 |
| ETWRRIDRLFGS | 0.619 ± 0.058 |
| SLEALARDRFCT | 0.724 ± 0.014 |
| CCGSSPLPPFTS | 0.724 ± 0.055 |
| RGRSGASSGWRG | 0.659 ± 0.044 |

| Sequence | protein stability index |
| --- | --- |
| SIDKINKLTPDV | 0.648 ± 0.052 |
| FPAPSPPFRLPP | 0.748 ± 0.025 |
| TLRVQNKRKSEE | 0.663 ± 0.028 |
| GLRRSTRSRLVF | 0.593 ± 0.12 |
| HNDYKGSQIDNG | 0.573 ± 0.046 |
| RGFPPPPLLSSR | 0.74 ± 0.059 |
| AVRYFKLCRSCL | 0.65 ± 0.012 |
| PPPPPPPPHPPP | 0.559 ± 0.0068 |
| GHKVTKDAIRIR | 0.6545 ± 0.0047 |
| GRWRRWSSEGLG | 0.684 ± 0.026 |
| PWCTPVKRGTSM | 0.763 ± 0.056 |
| VTHNTLLRTKVV | 0.518 ± 0.0069 |
| GCASTNTPSTTP | 0.714 ± 0.022 |
| GGDCGERRGNEV | 0.65 ± 0.05 |
| LLSPFLPPPLFV | 0.563 ± 0.019 |
| GGGREGNGRERS | 0.594 ± 0.053 |
| VRDLGSPFIVYR | 0.64 ± 0.059 |
| LSPGTPVSAPRL | 0.655 ± 0.029 |
| WSLIARYSPCHF | 0.67 ± 0.027 |
| PPPPAQGRRRPV | 0.703 ± 0.023 |
| RYRSRHHSTYVL | 0.635 ± 0.26 |
| IGDRQIDFFKKD | 0.7073 ± 0.0024 |
| SSEKKKEDGGLG | 0.687 ± 0.069 |
| AVRGCGVGSGWR | 0.713 ± 0.02 |
| GRRLSGWGAWVV | 0.724 ± 0.063 |
| TVLRPVLCCFFV | 0.698 ± 0.015 |

| Sequence | protein stability index |
| --- | --- |
| RKKREKNKKRKE | 0.695 ± 0.049 |
| LQSSSCLLYPSS | 0.681 ± 0.026 |
| ASSLSHLSLPAP | 0.695 ± 0.017 |
| WVRIGVEFGWGE | 0.689 ± 0.11 |
| ALSLPPRLRTFY | 0.663 ± 0.05 |
| LFTLSGAPLALP | 0.729 ± 0.015 |
| GLVCRKGSMGVR | 0.671 ± 0.057 |
| PVFDSRDRTFSH | 0.713 ± 0.042 |
| RGEGGRGRTVEG | 0.631 ± 0.077 |
| GSFPPAAHFSPD | 0.702 ± 0.043 |
| PSPFPPPLPPHL | 0.767 ± 0.064 |
| GGELGGTGVGGG | 0.6881 ± 0.0016 |
| SIVRWLTSSLIH | 0.787 ± 0.17 |
| VASGTLGWWVSA | 0.712 ± 0.018 |
| GSEAVQRKNESC | 0.724 ± 0.08 |
| LRSGGVPVFWGS | 0.721 ± 0.043 |
| ARNDAGKRERVT | 0.696 ± 0.016 |
| RPGYDRNRTGMI | 0.738 ± 0.073 |
| TPPVHLPPSSFS | 0.744 ± 0.0023 |
| PLPTHISPPLPS | 0.6893 ± 0.006 |
